Starred links: 1 amine or outer side, 2 acyl side, 3 side chain; linkers in the order of their positions; H or OH if unused. Non-standard residues stand in square brackets, D forms with d. No end group written: not given here. *: point of attachment. dBip = N[C@H](Cc1ccc(-c2ccccc2)cc1)C(=O)O; Oic = O=C(O)[C@@H]1C[C@@H]2CCCC[C@@H]2N1; Phe(4-Cl) = N[C@@H](Cc1ccc(Cl)cc1)C(=O)O; dPhe(4-Cl) = N[C@H](Cc1ccc(Cl)cc1)C(=O)O; Phe(4-I) = N[C@@H](Cc1ccc(I)cc1)C(=O)O; γGlu = O=C(O)[C@H](CCC(=O)[*:2])N[*:1]; d1Nal = N[C@H](Cc1cccc2ccccc12)C(=O)O; NMeR = CN[C@@H](CCCNC(=N)N)C(=O)O; Tridecanoyl = CCCCCCCCCCCCC(=O)*; hArg = N=C(N)NCCCC[C@H](N)C(=O)O; β3hR = N=C(N)NCCC[C@H](N)CC(=O)O; Cha = N[C@@H](CC1CCCCC1)C(=O)O; β3hQ = NC(=O)CC[C@H](N)CC(=O)O; β3hN = NC(=O)C[C@H](N)CC(=O)O; NMeV = CN[C@H](C(=O)O)C(C)C; β3hP = O=C(O)C[C@@H]1CCCN1; code O = not defined here; Nle = CCCC[C@H](N)C(=O)O; Orn = NCCC[C@H](N)C(=O)O; BPhe = β-phenylalanine; AEEA = NCCOCCOCC(=O)O; Aib = CC(C)(N)C(=O)O; Sar = CNCC(=O)O
T1: human APJ receptor (human, UniProt P35414 1-380)
T1 sequence (looked up): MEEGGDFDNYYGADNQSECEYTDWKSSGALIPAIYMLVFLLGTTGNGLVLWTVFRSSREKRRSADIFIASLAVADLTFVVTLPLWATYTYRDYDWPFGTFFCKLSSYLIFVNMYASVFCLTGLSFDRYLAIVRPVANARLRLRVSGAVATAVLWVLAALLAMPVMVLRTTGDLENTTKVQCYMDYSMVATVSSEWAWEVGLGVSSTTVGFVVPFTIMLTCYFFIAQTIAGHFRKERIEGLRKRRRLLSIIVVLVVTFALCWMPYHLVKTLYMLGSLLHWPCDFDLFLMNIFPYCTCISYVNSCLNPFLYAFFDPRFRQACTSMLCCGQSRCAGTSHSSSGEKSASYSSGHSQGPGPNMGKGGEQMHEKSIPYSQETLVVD

T2: rat APJ receptor (rat, UniProt Q9JHG3 1-377)
T2 sequence (looked up): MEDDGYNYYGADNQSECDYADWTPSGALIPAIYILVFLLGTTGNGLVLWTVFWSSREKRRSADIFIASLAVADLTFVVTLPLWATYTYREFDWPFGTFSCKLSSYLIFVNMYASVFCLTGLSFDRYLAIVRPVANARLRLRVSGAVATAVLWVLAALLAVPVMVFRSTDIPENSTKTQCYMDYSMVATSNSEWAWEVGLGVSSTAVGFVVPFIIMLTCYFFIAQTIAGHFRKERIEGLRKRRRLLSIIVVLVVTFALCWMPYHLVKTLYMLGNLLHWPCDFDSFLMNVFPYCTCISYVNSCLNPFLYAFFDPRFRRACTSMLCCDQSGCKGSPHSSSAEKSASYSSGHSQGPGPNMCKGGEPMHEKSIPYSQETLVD


What was measured:
human APJ receptor = target: T1, human APJ receptor; assay: cell-based or functional assay
rat APJ receptor = target: T2, rat APJ receptor; assay: cell-based or functional assay

| Binder | EC50 Human APJ Receptor (human APJ receptor) | EC50 Rat APJ Receptor (rat APJ receptor) |
| --- | --- | --- |
| [Orn]F[hArg][hArg]Q[hArg]P[hArg][Cha]SHK[Sar][Oic][Nle]P[Phe(4-Cl)] [apelin polypeptide SEQ ID NO: 680] | 0.116 nM | 0.401 nM |
| [Orn]F[hArg][NMeR]Q[hArg]P[hArg][Cha]SHKG[Oic][Nle]P[Phe(4-Cl)] [apelin polypeptide SEQ ID NO: 670] | 0.131 nM | 0.254 nM |
| [Orn]F[hArg][hArg]Q[hArg]P[hArg][Cha][Sar]HKG[Oic][Nle]P[Phe(4-Cl)] [apelin polypeptide SEQ ID NO: 678] | 0.664 nM | 2.11 nM |
| [Orn][BPhe][hArg][hArg]Q[hArg]P[hArg][Cha]SHKG[Oic][Nle]P[Phe(4-Cl)] [apelin polypeptide SEQ ID NO: 687] | 0.0918 nM | 0.175 nM |
| [Orn]F[NMeR][hArg]Q[hArg]P[hArg][Cha]SHKG[Oic][Nle]P[Phe(4-Cl)] [apelin polypeptide SEQ ID NO: 669] | 5.3 nM | 5.59 nM |
| [Orn]F[hArg][hArg]Q[hArg]P[hArg][Cha]SHKG[Aib][Nle]P[Phe(4-Cl)] [apelin polypeptide SEQ ID NO: 682] | 1.53 nM | 7.98 nM |
| Ac-[hArg][hArg]Q[dR]P[NMeR][Cha]SHKG[Oic][Phe(4-I)]P[dBip]-OH (SMILES CC(=O)N[C@@H](CCCCNC(=N)N)C(=O)N[C@@H](CCCCNC(=N)N)C(=O)N[C@@H](CCC(N)=O)C(=O)N[C@H](CCCNC(=N)N)C(=O)N1CCC[C@H]1C(=O)N(C)[C@@H](CCCNC(=N)N)C(=O)N[C@@H](CC1CCCCC1)C(=O)N[C@@H](CO)C(=O)N[C@@H](Cc1c[nH]cn1)C(=O)N[C@@H](CCCCN)C(=O)NCC(=O)N1[C@H](C(=O)N[C@@H](Cc2ccc(I)cc2)C(=O)N2CCC[C@H]2C(=O)N[C@H](Cc2ccc(-c3ccccc3)cc2)C(=O)O)C[C@@H]2CCCC[C@@H]21) [apelin polypeptide SEQ ID NO: 22] | 1.52 nM | 4.52 nM |
| Q[hArg]P[NMeR][Cha]SHKG[Oic][Nle]P[Phe(4-Cl)] [apelin polypeptide SEQ ID NO: 675] | 0.159 nM | 0.189 nM |
| [Orn]F[hArg][hArg]Q[NMeR]P[hArg][Cha]SHKG[Oic][Nle]P[Phe(4-Cl)] [apelin polypeptide SEQ ID NO: 671] | 0.162 nM | 0.387 nM |
| [Orn]F[hArg][hArg]Q[hArg][β3hP][hArg][Cha]SHKG[Oic][Nle]P[Phe(4-Cl)] [apelin polypeptide SEQ ID NO: 694] | 0.458 nM | 0.602 nM |
| [Orn]F[hArg][hArg]Q[NMeR]P[NMeR][Cha]SHKG[Oic][Nle]P[Phe(4-Cl)] [apelin polypeptide SEQ ID NO: 672] | 0.445 nM | 0.845 nM |
| Tridecanoyl-[γGlu][AEEA][AEEA][dQ][hArg]P[dR][Cha]SHKG[Oic][Nle][dPhe(4-Cl)]-OH (SMILES CCCCCCCCCCCCC(=O)N[C@@H](CCC(=O)NCCOCCOCC(=O)NCCOCCOCC(=O)N[C@H](CCC(N)=O)C(=O)N[C@@H](CCCCNC(=N)N)C(=O)N1CCC[C@H]1C(=O)N[C@H](CCCNC(=N)N)C(=O)N[C@@H](CC1CCCCC1)C(=O)N[C@@H](CO)C(=O)N[C@@H](Cc1c[nH]cn1)C(=O)N[C@@H](CCCCN)C(=O)NCC(=O)N1[C@H](C(=O)N[C@@H](CCCC)C(=O)N[C@H](Cc2ccc(Cl)cc2)C(=O)O)C[C@@H]2CCCC[C@@H]21)C(=O)O) [apelin polypeptide SEQ ID NO: 283] | 9.74 nM | 15.6 nM |
| [Orn]F[hArg][hArg][β3hN][hArg]P[hArg][Cha]SHKG[Oic][Nle]P[Phe(4-Cl)] [apelin polypeptide SEQ ID NO: 691] | 0.453 nM | 0.424 nM |
| [Orn]F[hArg][hArg]Q[hArg]P[hArg][Cha]SHKG[Sar][Nle]P[Phe(4-Cl)] [apelin polypeptide SEQ ID NO: 683] | 0.379 nM | 0.926 nM |
| Tridecanoyl-[γGlu][AEEA][AEEA]Q[dR]P[NMeR][Cha]SHKG[Oic][Nle]P[dPhe(4-Cl)]-OH (SMILES CCCCCCCCCCCCC(=O)N[C@@H](CCC(=O)NCCOCCOCC(=O)NCCOCCOCC(=O)N[C@@H](CCC(N)=O)C(=O)N[C@H](CCCNC(=N)N)C(=O)N1CCC[C@H]1C(=O)N(C)[C@@H](CCCNC(=N)N)C(=O)N[C@@H](CC1CCCCC1)C(=O)N[C@@H](CO)C(=O)N[C@@H](Cc1c[nH]cn1)C(=O)N[C@@H](CCCCN)C(=O)NCC(=O)N1[C@H](C(=O)N[C@@H](CCCC)C(=O)N2CCC[C@H]2C(=O)N[C@H](Cc2ccc(Cl)cc2)C(=O)O)C[C@@H]2CCCC[C@@H]21)C(=O)O) [apelin polypeptide SEQ ID NO: 284] | > 4170 nM | > 4170 nM |
| [Orn]F[hArg][hArg]Q[hArg][Sar][hArg][Cha]SHKG[Oic][Nle]P[Phe(4-Cl)] [apelin polypeptide SEQ ID NO: 676] | 0.762 nM | 0.84 nM |
| [Orn]F[hArg][hArg]Q[hArg]P[hArg][Cha]SHK[Aib][Oic][Nle]P[Phe(4-Cl)] [apelin polypeptide SEQ ID NO: 681] | 0.723 nM | 1.3 nM |
| [Orn]F[hArg][hArg]Q[hArg][Aib][hArg][Cha]SHKG[Oic][Nle]P[Phe(4-Cl)] [apelin polypeptide SEQ ID NO: 677] | 3.5 nM | 3.48 nM |
| [Orn]F[hArg][β3hR]Q[hArg]P[hArg][Cha]SHKG[Oic][Nle]P[Phe(4-Cl)] [apelin polypeptide SEQ ID NO: 689] | 0.114 nM | 0.349 nM |
| [Orn]F[hArg][hArg][β3hQ][hArg]P[hArg][Cha]SHKG[Oic][Nle]P[Phe(4-Cl)] [apelin polypeptide SEQ ID NO: 690] | 0.111 nM | 0.183 nM |
| [Orn]F[hArg][hArg]Q[hArg]P[hArg][Cha]S[NMeV]KG[Oic][Nle]P[Phe(4-Cl)] [apelin polypeptide SEQ ID NO: 679] | 3.63 nM | 33 nM |
| Tridecanoyl-[γGlu][AEEA][AEEA]Q[dR]P[NMeR][Cha]SHKG[Oic][Nle][d1Nal]-OH (SMILES CCCCCCCCCCCCC(=O)N[C@@H](CCC(=O)NCCOCCOCC(=O)NCCOCCOCC(=O)N[C@@H](CCC(N)=O)C(=O)N[C@H](CCCNC(=N)N)C(=O)N1CCC[C@H]1C(=O)N(C)[C@@H](CCCNC(=N)N)C(=O)N[C@@H](CC1CCCCC1)C(=O)N[C@@H](CO)C(=O)N[C@@H](Cc1c[nH]cn1)C(=O)N[C@@H](CCCCN)C(=O)NCC(=O)N1[C@H](C(=O)N[C@@H](CCCC)C(=O)N[C@H](Cc2cccc3ccccc23)C(=O)O)C[C@@H]2CCCC[C@@H]21)C(=O)O) [apelin polypeptide SEQ ID NO: 285] | 8.22 nM | 122 nM |
| [Orn]F[hArg][hArg]Q[hArg]P[hArg][Cha]SHKG[Oic][Nle][Aib][Phe(4-Cl)] [apelin polypeptide SEQ ID NO: 685] | 0.0946 nM | 0.168 nM |
| [code O]F[hArg][NMeR]Q[NMeR]P[NMeR][Cha]SHKG[Oic][Nle]P[Phe(4-Cl)] (reading uncertain) [apelin polypeptide SEQ ID NO: 673] | 1.34 nM | 1.34 nM |
| Ac-[hArg]Q[dR]P[NMeR][Cha]SHKG[Oic][Nle]P[dPhe(4-Cl)]-OH [apelin polypeptide SEQ ID NO: 24] | 7.87 nM | 134 nM |
| Ac-[hArg]Q[dR]P[NMeR][Cha]SHKG[Oic][Nle]P[Phe(4-Cl)]-OH [apelin polypeptide SEQ ID NO: 23] | 0.384 nM | 32.2 nM |
| [Orn]F[hArg][hArg]Q[β3hR]P[hArg][Cha]SHKG[Oic][Nle]P[Phe(4-Cl)] [apelin polypeptide SEQ ID NO: 693] | 0.229 nM | 0.505 nM |

From patent US10941182 (Amgen, dated 2021)
